Assay results: PMC3549664

What was measured:
[1] = survival after PUGNAc then Fas antibody; conditions: glycan lost; control: FVB/n and hK18 WT mice
[2] = Coomassie of high salt extract, hK18 blot; conditions: glycan lost; control: hK18-WT mouse line
[3] = immunofluorescence of liver and pancreas, basal; conditions: glycan lost; control: hK18 WT mice
[4] = gross appearance, histology, Oil red O, PAS, insulin stain; conditions: glycan lost; control: hK18 WT mice
anti-K18 pS53 blot = conditions: glycan lost; control: K18 WT transfectants

Protein	other: mouse lethality after PUGNAc/Fas [1]	expression_or_secretion [2]	other: keratin filament organisation [3]	other: tissue injury after STZ [4]	other: K18 S34/S53 phosphorylation (anti-K18 pS53 blot)
keratin 18 (K18, hK18): K18 S30/31/49A (Gly−) (protein) parent chain: MSFTTRSTFSTNYRSLGSVQAPSYGARPVSSAASVYAGAGGSGSRISVSRSTSFRGGMGSGGLATGIAGGLAGMGGIQNEKETMQSLNDRLASYLDRVRSLETENRRLESKIREHLEKKGPQVRDWSHYFKIIEDLRAQIFANTVDNARIVLQIDNARLAADDFRVKYETELAMRQSVENDIHGLRKVIDDTNITRLQLETEIEALKEELLFMKKNHEEEVKGLQAQIASSGLTVEVDAPKSQDLAKIMADIRAQYDELARKNREELDKYWSQQIEESTTVVTTQSAEVGAAETTLTELRRTVQSLEIDLDSMRNLKASLENSLREVEARYALQMEQLNGILLHLESELAQTRAEGQRQAQEYEALLNIKVKLEAEIATYRRLLEDGEDFNLGDALDSSNSMQTIQKTTTRRIVDGKVVSETNDTKVLRH	increases	no change	no change	increases	
keratin 18 (K18, hK18): K18 Gly− (protein) parent chain: MSFTTRSTFSTNYRSLGSVQAPSYGARPVSSAASVYAGAGGSGSRISVSRSTSFRGGMGSGGLATGIAGGLAGMGGIQNEKETMQSLNDRLASYLDRVRSLETENRRLESKIREHLEKKGPQVRDWSHYFKIIEDLRAQIFANTVDNARIVLQIDNARLAADDFRVKYETELAMRQSVENDIHGLRKVIDDTNITRLQLETEIEALKEELLFMKKNHEEEVKGLQAQIASSGLTVEVDAPKSQDLAKIMADIRAQYDELARKNREELDKYWSQQIEESTTVVTTQSAEVGAAETTLTELRRTVQSLEIDLDSMRNLKASLENSLREVEARYALQMEQLNGILLHLESELAQTRAEGQRQAQEYEALLNIKVKLEAEIATYRRLLEDGEDFNLGDALDSSNSMQTIQKTTTRRIVDGKVVSETNDTKVLRH					no change
